This is an account of results in patent US20050171017A1.

The target of assay [1] is thyroid-stimulating hormone (TSH) receptor (human) (UniProt P16473). The assay is described as follows: flow cytometry, 10 ug/ml TSH-biotin + SA-PE on human PBMC donor 1, lymphoid gate; SA-PE alone 2.50, unstained 2.13; no * (no credible shift). (A flow cytometer gives signals particle by particle.)
Assay [2] has the same target. The assay is described as follows: flow cytometry, 10 ug/ml TSH-biotin + SA-PE on human PBMC donor 2, lymphoid gate; SA-PE alone 3.92, unstained 3.19; no * (no credible shift).
Assay [3] has the same target. The assay is described as follows: flow cytometry, 10 ug/ml TSH-biotin + SA-PE on human PBMC donor 1, myeloid gate; SA-PE alone 4.44, unstained 3.43; * = credible positive shift.
The target is the same in assay [4]. The assay is described as follows: flow cytometry, 10 ug/ml TSH-biotin + SA-PE on human PBMC donor 2, myeloid gate; SA-PE alone 5.92, unstained 4.33; * = credible positive shift.
Assay [5] has the same target. Description: flow cytometry, 10 ug/ml TSH-biotin + SA-PE on U937 human monocyte line, all live cells; SA-PE alone 4.88, unstained 4.49; * = credible positive shift.
For assay [6] the target is unchanged. Description: cell-based or functional assay.

Sequence of thyroid-stimulating hormone (TSH) receptor (human) (P16473 21-764): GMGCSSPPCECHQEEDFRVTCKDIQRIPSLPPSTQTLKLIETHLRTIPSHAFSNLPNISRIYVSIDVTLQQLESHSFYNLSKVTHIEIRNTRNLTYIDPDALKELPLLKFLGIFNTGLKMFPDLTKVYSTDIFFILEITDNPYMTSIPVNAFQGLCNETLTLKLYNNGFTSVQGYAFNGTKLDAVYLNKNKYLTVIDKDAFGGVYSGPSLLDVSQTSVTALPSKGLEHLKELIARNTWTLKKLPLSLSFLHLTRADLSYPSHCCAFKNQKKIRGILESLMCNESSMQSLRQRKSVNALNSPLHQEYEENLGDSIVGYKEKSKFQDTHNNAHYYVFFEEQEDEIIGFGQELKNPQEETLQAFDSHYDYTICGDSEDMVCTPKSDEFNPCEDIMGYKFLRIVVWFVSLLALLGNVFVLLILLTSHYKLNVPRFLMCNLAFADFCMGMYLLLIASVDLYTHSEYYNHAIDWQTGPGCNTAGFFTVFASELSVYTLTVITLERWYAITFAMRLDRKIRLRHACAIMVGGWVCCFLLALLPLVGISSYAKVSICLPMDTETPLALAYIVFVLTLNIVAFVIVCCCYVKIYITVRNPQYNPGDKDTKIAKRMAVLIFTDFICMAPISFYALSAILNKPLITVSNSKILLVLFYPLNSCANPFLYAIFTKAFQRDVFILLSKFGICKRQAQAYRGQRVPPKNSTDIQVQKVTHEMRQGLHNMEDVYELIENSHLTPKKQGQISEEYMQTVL

Regarding “TSH-biotin (from UniProt P01215 25-116; P01222 21-132) (ligand)”, the FL-2 MFI worked out at 2.63 MFI in assay [1]; 4.23 MFI in assay [2]; 7.78 MFI in assay [3]; 7.26 MFI in assay [4]; 6.34 MFI in assay [5].
“Thyroid stimulating hormone (TSH), purified TSH heterodimer protein (from UniProt P01215 25-116; P01222 21-132) (ligand)” came in with a luciferase induction (CRE-luciferase reporter, NCI-H295R human adrenal cortex cells) in assay [6] of 15 to 25 fold.
